Legend:
[1] = target: VP5 CT fragment from sequential chymotrypsin-trypsin digestion of VP4 Rhod5F (rhesus rotavirus (RRV)); assay: SDS-PAGE of unboiled and boiled samples; VP4 469C-Rhod5F digested with chymotrypsin (37°C, 30 min) then trypsin (room temperature, 1 h); reducing sample buffer (200 mM DTT), boiled at 95°C for 3 min or kept at room temperature for 3 min; 5-to-20% gradient gel, UV light and Coomassie blue
[2] = target: T1, wild-type recombinant VP4 labeled with pHrodo Red succinimidyl ester (rhesus rotavirus (RRV), UniProt P12473 1-776, pHrodo Red succinimidyl ester, 1 dye molecule per 2 VP4 monomers (residues not stated)); assay: co-sedimentation; recoating of labeled DLP: 100 mM sodium acetate pH 5.2, VP4 at 0.9 mg/ml (~33-fold excess) 1 h at room temperature, then VP7 in 2.3-fold excess with 1 mM CaCl2 for 1 h; recoated particles separated from excess components by cesium chloride gradient centrifugation; dyes seen on single particles by confocal imaging; details: both partners purified
T1 construct: VP4, outer layer spike protein of rhesus rotavirus (RRV), wild type; also called VP4-pHrodo Red; wt VP4; source: Sf9 cells infected with a baculovirus vector, purified (ammonium sulfate, Phenyl HP, HiTrap Q, S200)

[3] = target: T2, wild-type recombinant VP4 labeled with Atto 565 NHS ester (rhesus rotavirus (RRV), UniProt P12473 1-776, Atto 565 NHS ester, about 1 dye molecule per VP4 monomer (residues not stated)); assay: as above; details: both partners purified
T2 construct: VP4, outer layer spike protein of rhesus rotavirus (RRV), wild type; also called VP4-565; rVP4; source: Sf9 cells infected with a baculovirus vector, purified (ammonium sulfate, Phenyl HP, HiTrap Q, S200)

[4] = target: T3, VP4 mutated at position 469 from serine to cysteine (rhesus rotavirus (RRV), UniProt P12473 1-776, S469C); assay: as above; details: both partners purified
T3 construct: VP4, outer layer spike protein of rhesus rotavirus (RRV), with S469C; Unlabeled during recoating; It was labeled on the purified rcTLP afterwards with DBCO-maleimide and Rhod5F azide; also called VP4 469C; S469C; source: Sf9 cells infected with a baculovirus vector, purified (ammonium sulfate, Phenyl HP, HiTrap Q, S200)

| Molecule | stoichiometry N [1] | binding result [2] | binding result [3] | binding result [4] |
| --- | --- | --- | --- | --- |
| VP5 CT fragment from sequential chymotrypsin-trypsin digestion of VP4 Rhod5F (domain or fragment) | 3 | – | – | – |
| Atto 488 NHS ester-labeled VP7 (natural protein, Atto 488 NHS ester (residues not stated), VP7, Ca2+-stabilized outer layer protein of rhesus rotavirus (RRV); also called VP7-488) QNYGINLPITGSMDTAYANSTQEETFLTSTLCLYYPTEAATEINDNSWKDTLSQLFLTKGWPTGSVYFKEYTDIASFSVDPQLYCDYNVVLMKYDATLQLDMSELADLILNEWLCNPMDITLYYYQQTDEANKWISMGSSCTIKVCPLNTQTLGIGCLTTDTATFEEVATAEKLVITDVVDGVNHKLDVTTATCTIRNCKKLGPRENVAVIQVGGSDVLDITADPTTAPQTERMMRINWKKWWQVFYTVVDYVNQIIQAMSKRSRSLNSAAFYYRI | – | binds | binds | binds |

— PMC6258952, “Visualization of Calcium Ion Loss from Rotavirus during Cell Entry” (Journal of Virology, 2018)
